Target: Helicoverpa armigera gut proteases (HGP) (Helicoverpa armigera)
Assay: cell-based or functional assay

Chain of inhibitory repeat domain IRD-7 of Capsicum annuum Pin-II proteinase inhibitors (CanPIs) (O49146 other isoform, or with tags, fused parts or gaps): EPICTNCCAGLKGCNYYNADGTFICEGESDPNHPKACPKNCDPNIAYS

HGPI activity of the IRD alone at its IC50 concentration: 49%
inhibition of HGP activity (BApNA and Azocasein substrates): 40 to 45%
Substance: inhibitory repeat domain IRD-7 of Capsicum annuum Pin-II proteinase inhibitors (CanPIs) (from UniProt O49146 152-198)

From patent US20150087584A1
